{
  "source": "patent US20060160146",
  "key": {"[1]": {"tested_on": "BE11-hAPP695 with tryptophan at position 16 of β-amyloid", "sequence (chain, as listed by the source)": "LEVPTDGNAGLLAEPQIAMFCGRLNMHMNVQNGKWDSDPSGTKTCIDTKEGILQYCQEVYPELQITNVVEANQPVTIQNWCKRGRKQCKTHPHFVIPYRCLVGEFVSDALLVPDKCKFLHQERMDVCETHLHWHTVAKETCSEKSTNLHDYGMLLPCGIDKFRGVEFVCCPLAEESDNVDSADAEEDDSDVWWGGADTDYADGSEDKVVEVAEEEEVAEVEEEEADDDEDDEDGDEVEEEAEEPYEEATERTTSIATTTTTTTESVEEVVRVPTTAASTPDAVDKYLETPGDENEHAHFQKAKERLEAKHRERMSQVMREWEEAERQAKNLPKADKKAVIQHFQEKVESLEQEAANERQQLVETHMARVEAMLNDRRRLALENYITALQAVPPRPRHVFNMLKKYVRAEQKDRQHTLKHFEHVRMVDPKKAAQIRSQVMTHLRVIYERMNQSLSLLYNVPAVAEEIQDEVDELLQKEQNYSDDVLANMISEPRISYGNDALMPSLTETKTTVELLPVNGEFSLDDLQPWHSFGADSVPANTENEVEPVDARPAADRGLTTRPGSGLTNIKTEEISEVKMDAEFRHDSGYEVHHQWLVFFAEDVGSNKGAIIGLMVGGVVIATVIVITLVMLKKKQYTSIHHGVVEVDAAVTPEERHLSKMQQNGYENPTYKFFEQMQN"}, "[2]": {"tested_on": "BE11-hAPP695 with alanine at position 17 of β-amyloid", "sequence (chain, as listed by the source)": "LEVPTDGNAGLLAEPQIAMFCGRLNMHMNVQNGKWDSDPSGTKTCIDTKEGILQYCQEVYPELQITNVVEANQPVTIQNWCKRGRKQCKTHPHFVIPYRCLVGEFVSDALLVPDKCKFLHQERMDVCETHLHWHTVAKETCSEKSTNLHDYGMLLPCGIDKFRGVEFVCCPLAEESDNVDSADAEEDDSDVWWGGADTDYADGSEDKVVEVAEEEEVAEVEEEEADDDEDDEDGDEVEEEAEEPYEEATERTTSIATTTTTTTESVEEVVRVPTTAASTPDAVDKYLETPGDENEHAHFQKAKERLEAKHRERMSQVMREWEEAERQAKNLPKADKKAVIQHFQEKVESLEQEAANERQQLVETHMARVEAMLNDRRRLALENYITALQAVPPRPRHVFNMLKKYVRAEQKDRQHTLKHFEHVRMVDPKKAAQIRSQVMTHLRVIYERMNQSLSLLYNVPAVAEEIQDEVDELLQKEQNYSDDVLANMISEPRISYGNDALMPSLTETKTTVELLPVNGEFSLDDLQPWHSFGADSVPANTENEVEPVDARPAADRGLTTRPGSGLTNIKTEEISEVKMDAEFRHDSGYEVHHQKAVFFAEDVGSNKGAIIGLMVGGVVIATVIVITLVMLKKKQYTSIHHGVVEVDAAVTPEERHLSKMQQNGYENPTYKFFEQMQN"}, "[3]": {"tested_on": "BE11-hAPP695 with proline at position 17 of β-amyloid", "sequence (chain, as listed by the source)": "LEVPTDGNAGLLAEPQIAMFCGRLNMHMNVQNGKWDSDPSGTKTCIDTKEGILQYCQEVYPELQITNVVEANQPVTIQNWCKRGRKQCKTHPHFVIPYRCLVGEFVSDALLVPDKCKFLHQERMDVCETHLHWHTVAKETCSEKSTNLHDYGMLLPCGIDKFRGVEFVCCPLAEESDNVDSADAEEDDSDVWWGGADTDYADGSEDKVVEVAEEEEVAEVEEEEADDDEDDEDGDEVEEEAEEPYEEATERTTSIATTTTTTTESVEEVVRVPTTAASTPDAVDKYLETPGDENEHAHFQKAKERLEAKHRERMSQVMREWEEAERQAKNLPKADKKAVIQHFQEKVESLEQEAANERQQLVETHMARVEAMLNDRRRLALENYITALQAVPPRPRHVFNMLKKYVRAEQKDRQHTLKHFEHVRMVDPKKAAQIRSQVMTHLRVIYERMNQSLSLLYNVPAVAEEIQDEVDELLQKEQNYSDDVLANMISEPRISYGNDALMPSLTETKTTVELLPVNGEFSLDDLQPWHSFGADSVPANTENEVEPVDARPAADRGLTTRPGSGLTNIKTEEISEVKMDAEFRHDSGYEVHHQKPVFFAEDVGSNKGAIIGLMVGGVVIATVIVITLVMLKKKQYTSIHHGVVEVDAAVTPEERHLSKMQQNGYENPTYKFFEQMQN"}, "[4]": {"tested_on": "BE11-hAPP695 with glutamic acid at position 17 of β-amyloid", "sequence (chain, as listed by the source)": "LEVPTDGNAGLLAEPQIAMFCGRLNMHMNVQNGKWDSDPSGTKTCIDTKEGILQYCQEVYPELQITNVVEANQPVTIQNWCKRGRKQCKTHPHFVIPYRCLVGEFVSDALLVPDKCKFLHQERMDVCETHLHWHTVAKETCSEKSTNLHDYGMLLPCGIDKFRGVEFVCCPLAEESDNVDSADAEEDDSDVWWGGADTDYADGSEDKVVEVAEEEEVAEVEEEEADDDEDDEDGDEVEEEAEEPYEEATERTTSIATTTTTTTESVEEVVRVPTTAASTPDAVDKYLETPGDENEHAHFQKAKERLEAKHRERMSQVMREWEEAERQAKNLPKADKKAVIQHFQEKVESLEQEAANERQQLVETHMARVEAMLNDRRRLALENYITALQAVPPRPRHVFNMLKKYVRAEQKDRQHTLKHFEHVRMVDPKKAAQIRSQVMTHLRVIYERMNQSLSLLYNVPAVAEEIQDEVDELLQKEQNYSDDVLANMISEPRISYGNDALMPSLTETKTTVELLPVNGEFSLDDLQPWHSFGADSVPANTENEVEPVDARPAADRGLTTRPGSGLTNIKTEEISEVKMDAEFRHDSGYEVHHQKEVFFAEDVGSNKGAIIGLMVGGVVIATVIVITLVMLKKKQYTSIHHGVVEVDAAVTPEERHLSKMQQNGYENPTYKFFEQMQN"}, "[5]": {"tested_on": "BE11-hAPP695 with lysine at position 17 of β-amyloid", "sequence (chain, as listed by the source)": "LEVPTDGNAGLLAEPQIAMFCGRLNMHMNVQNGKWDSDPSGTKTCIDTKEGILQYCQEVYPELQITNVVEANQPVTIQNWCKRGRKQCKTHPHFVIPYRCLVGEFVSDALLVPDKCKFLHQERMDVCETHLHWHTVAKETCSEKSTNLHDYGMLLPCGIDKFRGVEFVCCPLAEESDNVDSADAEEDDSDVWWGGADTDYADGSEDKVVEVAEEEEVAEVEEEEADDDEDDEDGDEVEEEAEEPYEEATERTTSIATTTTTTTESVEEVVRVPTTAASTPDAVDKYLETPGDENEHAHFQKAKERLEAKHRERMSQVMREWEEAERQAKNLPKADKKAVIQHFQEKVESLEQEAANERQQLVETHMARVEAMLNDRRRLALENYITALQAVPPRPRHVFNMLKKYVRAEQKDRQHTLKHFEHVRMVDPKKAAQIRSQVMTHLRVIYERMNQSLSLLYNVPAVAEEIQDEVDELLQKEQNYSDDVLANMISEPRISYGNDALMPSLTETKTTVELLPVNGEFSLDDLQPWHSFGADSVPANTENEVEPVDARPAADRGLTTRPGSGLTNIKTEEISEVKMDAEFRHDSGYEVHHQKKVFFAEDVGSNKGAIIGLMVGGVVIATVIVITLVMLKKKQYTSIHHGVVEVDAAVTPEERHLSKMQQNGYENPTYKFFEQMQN"}, "[6]": {"tested_on": "SEAP-APPsw fusion protein (secretory alkaline phosphatase fused to APP 581-695 with glutamic acid at position 17 of β-amyloid and Swedish mutations)"}, "[7]": {"tested_on": "SEAP-APPwt fusion protein (secretory alkaline phosphatase fused to APP 581-695, no Swedish mutations)"}},
  "data": [
    {"substance": "β-secretase (endogenous activity of the COS7 cells of Example 1)", "values": [
      {"measurement": "β-cleavage: amount of β-secretase cleavage product (sAPPβ) in culture supernatant, Western blotting", "setting": "[1]", "result": "→"},
      {"measurement": "β-cleavage: amount of β-secretase cleavage product (sAPPβ) in culture supernatant, Western blotting", "setting": "[2]", "result": "→"},
      {"measurement": "β-cleavage: amount of β-secretase cleavage product (sAPPβ) in culture supernatant, Western blotting", "setting": "[3]", "result": "→"},
      {"measurement": "β-cleavage: amount of β-secretase cleavage product (sAPPβ) in culture supernatant, Western blotting", "setting": "[4]", "result": "→"},
      {"measurement": "β-cleavage: amount of β-secretase cleavage product (sAPPβ) in culture supernatant, Western blotting", "setting": "[5]", "result": "↑"}
    ]},
    {"substance": "α-secretase (endogenous activity of the CHO-K1 cells of Example 2)", "values": [
      {"measurement": "α-cleavage product in culture supernatant, Western blotting", "setting": "[6]", "result": "no α-cleavage product was detected in any culture supernatant"},
      {"measurement": "α-cleavage product in culture supernatant, Western blotting", "setting": "[7]", "result": "no α-cleavage product was detected in any culture supernatant"}
    ]},
    {"substance": "α-secretase (endogenous activity of the COS7 cells of Example 1)", "values": [
      {"measurement": "α-cleavage: amount of α-secretase cleavage product (sAPPα) in culture supernatant, Western blotting", "setting": "[1]", "result": "↓↓"},
      {"measurement": "α-cleavage: amount of α-secretase cleavage product (sAPPα) in culture supernatant, Western blotting", "setting": "[2]", "result": "↓"},
      {"measurement": "α-cleavage: amount of α-secretase cleavage product (sAPPα) in culture supernatant, Western blotting", "setting": "[3]", "result": 0},
      {"measurement": "α-cleavage: amount of α-secretase cleavage product (sAPPα) in culture supernatant, Western blotting", "setting": "[4]", "result": 0},
      {"measurement": "α-cleavage: amount of α-secretase cleavage product (sAPPα) in culture supernatant, Western blotting", "setting": "[5]", "result": "↓↓"}
    ]},
    {"substance": "β-secretase (endogenous activity of the CHO-K1 cells of Example 2)", "values": [
      {"measurement": "β-amyloid production", "setting": "[6]", "result": "produced 5 to 10 times as much β-amyloid"},
      {"measurement": "β-secretase cleavage product in culture supernatant, Western blotting", "setting": "[6]", "result": "a β-secretase cleavage product was detected only in the fusion protein expression cell line (S)"},
      {"measurement": "β-secretase cleavage product in culture supernatant, Western blotting", "setting": "[7]", "result": "a β-secretase cleavage product was detected only in the fusion protein expression cell line (S)"}
    ]}
  ]
}
